{"source": "patent US20230085357A1", "about": "“INJECTABLE HIGH CONCENTRATION PHARMACEUTICAL FORMULATIONS AND METHODS OF MANUFACTURING AND USE THEREOF” (Xeris Pharmaceuticals, Inc., priority 2021, published 2023)", "key": {"[1]": {"assay": "Bevacizumab pharmacokinetics, plasma concentration after single 100 mg dose IV or SC", "assay_type": "in vivo", "conditions": "female Gottingen minipigs, mean"}, "[2]": {"conditions": "IV product; cited from earlier work"}, "[3]": {"conditions": "single dose, plasma, uncorrected"}}, "data": [{"substance": "Avastin ®", "values": [{"measurement": "AUC336/D", "setting": "[1]; dose-corrected", "result": 3084, "unit": "kg·µg·h/mL/mg"}, {"measurement": "AUClast/D", "setting": "[1]; dose-corrected", "result": 5215, "unit": "kg·µg·h/mL/mg"}, {"measurement": "AUC∞/D", "setting": "[1]; dose-corrected", "result": 5357, "unit": "kg·µg·h/mL/mg"}, {"measurement": "Cmax/D", "setting": "[1]; dose-corrected", "result": 24.7, "unit": "kg·µg/mL/mg"}, {"measurement": "T1/2", "setting": "[1]; single dose, plasma", "result": 227, "unit": "h"}, {"measurement": "AUC336", "setting": "[1]; [3]", "result": 28380, "unit": "µg·h/mL"}, {"measurement": "AUClast", "setting": "[1]; [3]", "result": 47990, "unit": "µg·h/mL"}, {"measurement": "AUC∞", "setting": "[1]; [3]", "result": 49271, "unit": "µg·h/mL"}, {"measurement": "Cmax", "setting": "[1]; [3]", "result": 230, "unit": "µg/mL"}]}, {"substance": "bevacizumab: human monoclonal antibody that binds Vascular Endothelial Growth Factor (VEGF), commercialized under the AVASTIN® brand", "values": [{"measurement": "average clearance rate", "setting": "[2]", "result": "about 0.262 L/day"}, {"measurement": "half-life", "setting": "[2]", "result": "about 20 days"}]}]}
